The text below walks through data of PMC7073461.

The experiment deals with T7 DNAP (complex of T7 gp5 and Escherichia coli thioredoxin) (bacteriophage T7 | Escherichia coli) (UniProt P00581).
UniProt P00581, sequence (P00581 whole entry, chain 1 of 2): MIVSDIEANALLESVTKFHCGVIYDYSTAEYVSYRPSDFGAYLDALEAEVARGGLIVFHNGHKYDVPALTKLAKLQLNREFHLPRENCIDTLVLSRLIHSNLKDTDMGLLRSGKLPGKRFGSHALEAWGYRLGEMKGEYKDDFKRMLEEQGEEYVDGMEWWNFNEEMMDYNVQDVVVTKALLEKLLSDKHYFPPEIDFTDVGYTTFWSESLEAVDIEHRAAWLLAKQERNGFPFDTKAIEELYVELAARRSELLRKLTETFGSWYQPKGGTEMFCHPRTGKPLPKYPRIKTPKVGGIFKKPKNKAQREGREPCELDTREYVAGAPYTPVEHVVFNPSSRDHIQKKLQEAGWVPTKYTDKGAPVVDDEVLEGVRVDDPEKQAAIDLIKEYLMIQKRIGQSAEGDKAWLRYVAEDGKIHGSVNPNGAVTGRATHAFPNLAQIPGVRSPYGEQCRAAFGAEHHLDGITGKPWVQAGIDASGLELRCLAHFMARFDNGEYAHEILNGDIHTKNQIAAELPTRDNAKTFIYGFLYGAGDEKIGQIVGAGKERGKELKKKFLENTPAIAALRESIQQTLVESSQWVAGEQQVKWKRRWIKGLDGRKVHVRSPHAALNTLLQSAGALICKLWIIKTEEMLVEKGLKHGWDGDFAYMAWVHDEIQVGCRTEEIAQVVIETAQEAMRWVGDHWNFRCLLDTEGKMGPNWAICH
UniProt P00581, sequence (P0AA25 whole entry, chain 2 of 2, further chain): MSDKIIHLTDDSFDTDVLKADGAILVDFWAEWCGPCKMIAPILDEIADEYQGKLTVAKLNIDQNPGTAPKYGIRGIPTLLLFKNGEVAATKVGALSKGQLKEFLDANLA

For the substance “C-tail mutant of T7 gp4A′ (T7 HelicaseΔC17) (enzyme)”, the Pol/Exo ratio (nucleotides incorporated per nucleotide excised) during leading strand synthesis on minicircle DNA, 150 μM dVTPs and 500 μM dTTP; 50–60% lower than with the WT T7 helicase turned out to be 5.7.
